Common to all, as to experiment: cell-based or functional assay
Assay [1] has as its target IL-4Rα (UniProt P24394).
In a further assay the target is Type I IL-4R (UniProt P24394).
For assay [2], the target named is IL-4Rα (UniProt P24394). The source holds these as a separate data set.

Read-outs that look alike come from different tables or passages of the source. Where only a bound is given, the exact number is not on record here.

Chain of UniProt P24394 (P24394 26-825 limits assumed): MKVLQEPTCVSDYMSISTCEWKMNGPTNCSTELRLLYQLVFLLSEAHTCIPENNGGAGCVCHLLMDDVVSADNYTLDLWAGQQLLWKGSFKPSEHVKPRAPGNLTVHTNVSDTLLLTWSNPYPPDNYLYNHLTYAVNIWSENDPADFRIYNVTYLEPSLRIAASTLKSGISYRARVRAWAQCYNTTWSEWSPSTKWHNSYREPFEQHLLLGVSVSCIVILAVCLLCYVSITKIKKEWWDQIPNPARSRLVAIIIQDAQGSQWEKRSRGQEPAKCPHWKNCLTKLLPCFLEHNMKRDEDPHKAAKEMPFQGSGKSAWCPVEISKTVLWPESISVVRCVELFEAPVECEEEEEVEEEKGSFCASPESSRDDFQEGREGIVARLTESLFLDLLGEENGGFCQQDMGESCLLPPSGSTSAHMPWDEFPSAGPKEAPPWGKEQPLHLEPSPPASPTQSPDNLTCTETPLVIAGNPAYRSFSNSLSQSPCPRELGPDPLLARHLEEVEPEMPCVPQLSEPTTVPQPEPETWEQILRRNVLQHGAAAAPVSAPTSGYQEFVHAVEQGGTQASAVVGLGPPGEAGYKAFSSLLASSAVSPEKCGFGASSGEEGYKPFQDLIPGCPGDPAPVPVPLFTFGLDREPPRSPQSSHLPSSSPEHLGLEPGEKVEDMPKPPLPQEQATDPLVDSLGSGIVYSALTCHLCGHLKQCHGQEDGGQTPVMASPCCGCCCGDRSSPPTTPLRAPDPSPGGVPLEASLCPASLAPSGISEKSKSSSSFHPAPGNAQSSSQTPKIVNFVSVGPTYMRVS

With cpIL4-PE (from UniProt P11439 278-633), in the assay with IL-4Rα [1], the IC50 (ng/mL), cell count by trypan blue exclusion, KCCL871 cells was determined as 1.5 ng/mL; the IC50 (ng/mL), cell count by trypan blue exclusion, KCCOR891 cells stood at 9 ng/mL; the IC50 (ng/mL), cell count by trypan blue exclusion, KCCTCM901 cells worked out at 0.7 ng/mL; the IC50 (ng/mL), cell count by trypan blue exclusion, YCUM862 cells was 0.6 ng/mL. Further, in the assay with IL-4Rα [1], the IC50 (ng/mL), cell count by trypan blue exclusion, YCUM911 cells was determined as 4.5 ng/mL and the IC50 (ng/mL), cell count by trypan blue exclusion, YCUT891 cells is 8 ng/mL. The molecule also displayed an IC50, inhibition of [3H]-thymidine incorporation in HH cells (48 h) in the assay with Type I IL-4R of 362 ng/mL.

B1: cpIL-4BAD fusion protein (protein)
chain: MDTTEKETFCRAATVLRQFYSHHEKDTRCLGATAQQFHRHKQLIRFLKRLDRNLWGLAGLNSCPVKEANQSTLENFLERLKTIMREKYSKCSSGGNGGHKCDITLQEIIKTLNSLTEQKTLCTELTVTDIFAASGSFQIPEFEPSEQEDSSSAERGLGPSPAGDGPSGSGKHHRQAPGLLWDASHQQEQPTSSSHHGGAGAVEIRSRHSAYPAGTEDDEGMGEEPSPFRGRSRAAPPNLWAAQRYGRELRRMSDEFVDSFKKGLPRPKSAGTATQMRQSSSWTRVFQSWWDRNLGRGSSAPSQ
Consider B1, for which, in the assay with IL-4Rα [2], the IC50 (ng/mL), cell count by trypan blue exclusion, KCCL871 cells worked out at 0.5 ng/mL; the IC50 (ng/mL), cell count by trypan blue exclusion, KCCOR891 cells came to 0.15 ng/mL; the IC50 (ng/mL), cell count by trypan blue exclusion, KCCTCM901 cells was 1 ng/mL; the IC50 (ng/mL), cell count by trypan blue exclusion, YCUM862 cells worked out at 1.1 ng/mL. Besides, in the assay with IL-4Rα [2], the IC50 (ng/mL), cell count by trypan blue exclusion, YCUM911 cells was 0.2 ng/mL; the IC50 (ng/mL), cell count by trypan blue exclusion, YCUT891 cells worked out at 11 ng/mL; the IC50, 5-day cell viability assay on Daudi cells, with 100x excess IL-4 is greater than 1000 ng/mL; the IC50, 5-day cell viability assay on Daudi cells, without excess IL-4 is 0.3 ng/mL. In the assay with IL-4Rα [2], this molecule had an IC50, 5-day cell viability assay on U 251 cells, with 100x excess IL-4 greater than 1000 ng/mL; an IC50, 5-day cell viability assay on U 251 cells, without excess IL-4 of 0.3 ng/mL; an IC50, colony formation assay on U 251 cells (10 days) of 5 ng/mL; an IC50, killing of Daudi cells (viable cell count, trypan blue exclusion, 5 days) of 0.1 ng/mL. The molecule further gave an IC50, killing of U 251 cells (viable cell count, trypan blue exclusion, 5 days) with IL-4Rα [2] of 0.6 ng/mL.

The values are drawn from patent US20160215035A1.
